Reference: US20230151111A1
Where “and” joins values, the source holds several entries; their conditions need not be identical. Equal entries are not always repeated. Blank lines part the entries; values can stand above or below the substance they belong to.

How the values were obtained:
[1] = biological target: human NT5E-Biotin (human) (UniProt P21589); assay: ELISA, NT5E-biotin on streptavidin; antibody 0.333 ug/mL diluted 1:729
[2] = biological target: human NT5E-Biotin (human) (UniProt P21589); assay: ELISA, NT5E-biotin on streptavidin; antibody 0.333 ug/mL diluted 1:3
[3] = biological target: human NT5E(1-552)-his (human) (UniProt P21589); assay: BLI (Fortebio), antibody on Protein A sensor, NT5E(1-552)-his 3.125-200 nM, 37 C
human NT5E(1-552)-his (human), sequence (P21589 27-552 limits assumed): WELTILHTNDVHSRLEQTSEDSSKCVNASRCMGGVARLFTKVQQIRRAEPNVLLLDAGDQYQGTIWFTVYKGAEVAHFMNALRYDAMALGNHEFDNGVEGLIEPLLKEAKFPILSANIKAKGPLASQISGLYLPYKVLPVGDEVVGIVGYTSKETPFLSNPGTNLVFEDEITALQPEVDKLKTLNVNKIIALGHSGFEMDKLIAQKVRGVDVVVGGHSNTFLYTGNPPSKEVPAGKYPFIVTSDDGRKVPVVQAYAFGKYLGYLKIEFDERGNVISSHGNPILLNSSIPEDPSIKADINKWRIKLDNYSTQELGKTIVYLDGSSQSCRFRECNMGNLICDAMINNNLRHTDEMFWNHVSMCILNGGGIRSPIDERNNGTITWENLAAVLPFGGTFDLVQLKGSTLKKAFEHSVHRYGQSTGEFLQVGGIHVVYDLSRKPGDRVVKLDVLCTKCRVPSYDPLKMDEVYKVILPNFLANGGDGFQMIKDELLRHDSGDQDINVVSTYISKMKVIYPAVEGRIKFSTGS

[4] = biological target: human NT5E-Biotin (human) (UniProt P21589); assay: ELISA, NT5E-biotin on streptavidin; antibody 0.333 ug/mL diluted 1:243
[5] = biological target: human NT5E-Biotin (human) (UniProt P21589); assay: ELISA, NT5E-biotin on streptavidin; antibody 0.333 ug/mL diluted 1:27
[6] = biological target: human NT5E-Biotin (human) (UniProt P21589); assay: ELISA, NT5E-biotin on streptavidin; antibody 0.333 ug/mL
[7] = biological target: human NT5E-Biotin (human) (UniProt P21589); assay: ELISA, NT5E-biotin on streptavidin; antibody 0.333 ug/mL diluted 1:81
[8] = biological target: human NT5E-Biotin (human) (UniProt P21589); assay: ELISA, NT5E-biotin on streptavidin
[9] = biological target: human NT5E-Biotin (human) (UniProt P21589); assay: ELISA, NT5E-biotin on streptavidin; antibody 0.333 ug/mL diluted 1:9
PD-1-mFc (human) [10] = biological target: PD-1-mFc (human) (UniProt Q15116); assay: ELISA, PD-1-mFc coated; antibody 1 ug/mL diluted 1:3
PD-1-mFc (human), sequence (Q15116 other isoform, or with tags, fused parts or gaps limits assumed): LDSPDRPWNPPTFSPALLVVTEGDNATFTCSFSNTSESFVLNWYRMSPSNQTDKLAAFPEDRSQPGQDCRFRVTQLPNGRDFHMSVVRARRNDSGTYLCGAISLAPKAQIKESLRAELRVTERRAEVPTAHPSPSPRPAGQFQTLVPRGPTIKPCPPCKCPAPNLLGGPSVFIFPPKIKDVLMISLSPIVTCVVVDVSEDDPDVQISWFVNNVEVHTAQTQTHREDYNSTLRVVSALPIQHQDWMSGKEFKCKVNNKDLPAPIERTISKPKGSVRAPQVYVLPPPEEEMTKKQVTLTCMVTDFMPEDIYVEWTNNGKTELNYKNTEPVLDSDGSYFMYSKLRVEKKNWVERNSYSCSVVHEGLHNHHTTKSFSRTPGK

PD-1-mFc (human) [11] = biological target: PD-1-mFc (human) (UniProt Q15116); assay: ELISA, PD-1-mFc coated; antibody 1 ug/mL diluted 1:729
[12] = biological target: human PD-1-mFc-biotin (human) (UniProt Q15116); assay: competitive ELISA, competitor coated PD-L1-mFc; antibody 5 ug/mL diluted 1:729
human PD-1-mFc-biotin (human), sequence (Q15116 other isoform, or with tags, fused parts or gaps limits assumed): as above

PD-1-mFc (human) [13] = biological target: PD-1-mFc (human) (UniProt Q15116); assay: ELISA, PD-1-mFc coated; antibody 1 ug/mL diluted 1:27
PD-1-mFc (human) [14] = biological target: PD-1-mFc (human) (UniProt Q15116); assay: ELISA, PD-1-mFc coated; antibody 1 ug/mL diluted 1:9
[15] = biological target: human PD-1-mFc-biotin (human) (UniProt Q15116); assay: competitive ELISA, competitor coated PD-L1-mFc; antibody 5 ug/mL diluted 1:27
[16] = biological target: human PD-1-mFc-biotin (human) (UniProt Q15116); assay: competitive ELISA, competitor coated PD-L1-mFc; antibody 5 ug/mL
[17] = biological target: human PD-1-mFc-biotin (human) (UniProt Q15116); assay: competitive ELISA, competitor coated PD-L1-mFc; antibody 5 ug/mL diluted 1:81
[18] = biological target: human PD-1-mFc-biotin (human) (UniProt Q15116); assay: competitive ELISA, competitor coated PD-L1-mFc; antibody 5 ug/mL diluted 1:3
[19] = biological target: human PD-1-mFc-biotin (human) (UniProt Q15116); assay: competitive ELISA, competitor coated PD-L1-mFc; antibody 5 ug/mL diluted 1:243
PD-1-mFc (human) [20] = biological target: PD-1-mFc (human) (UniProt Q15116); assay: ELISA, PD-1-mFc coated; antibody 1 ug/mL diluted 1:81
[21] = biological target: human PD-1-mFc-biotin (human) (UniProt Q15116); assay: competitive ELISA, blocking of PD-1-mFc-biotin binding to coated PD-L1-mFc
PD-1-mFc (human) [22] = biological target: PD-1-mFc (human) (UniProt Q15116); assay: ELISA, PD-1-mFc coated; antibody 1 ug/mL diluted 1:243
[23] = biological target: human PD-1-mFc-biotin (human) (UniProt Q15116); assay: competitive ELISA, competitor coated PD-L1-mFc; antibody 5 ug/mL diluted 1:9
PD-1-mFc (human) [24] = biological target: PD-1-mFc (human) (UniProt Q15116); assay: ELISA, PD-1-mFc coated; antibody 1 ug/mL

human NT5E-Biotin (human), sequence (P21589 27-552 limits assumed, form in doubt): as the sequence (P21589 27-552 limits assumed) above

OD450 [1]: 0.288 OD and 0.305 OD | OD450 [2]: 2.43 OD and 2.53 OD | Kd [3]: 104 pM | koff [3]: 2.44e-05 s⁻¹ | kon [3]: 234000 M⁻¹ s⁻¹ | OD450 [4]: 0.547 OD and 0.587 OD | OD450 [5]: 1.73 OD and 1.81 OD | OD450 [6]: 2.46 OD and 2.57 OD | OD450 [7]: 1.09 OD and 1.17 OD | EC50 [8]: 42 pM | OD450 [9]: 2.22 OD and 2.35 OD
Substance: MEDI9447 (antibody)

OD450 (PD-1-mFc (human) [10]): 2.44 OD | OD450 (PD-1-mFc (human) [11]): 0.521 OD and 0.498 OD | OD450 [12]: 1.35 OD and 1.28 OD | OD450 (PD-1-mFc (human) [13]): 2.2 OD and 2.22 OD | OD450 (PD-1-mFc (human) [14]): 2.52 OD and 2.57 OD | OD450 [15]: 1.01 OD and 0.875 OD | OD450 [16]: 0.057 OD | OD450 [17]: 1.24 OD and 1.15 OD | OD450 [18]: 0.075 OD and 0.076 OD | OD450 [19]: 1.39 OD and 1.21 OD | OD450 (PD-1-mFc (human) [20]): 1.71 OD | EC50 [21]: 1700 pM | OD450 (PD-1-mFc (human) [22]): 0.98 OD | OD450 [23]: 0.107 OD and 0.1 OD | OD450 (PD-1-mFc (human) [24]): 2.39 OD and 2.47 OD
Substance: nivolumab (antibody)
